# In patent US20260209362A1 (VIB VZW, published 2026):
# Key:
# [1] = target: T1, biotinylated recombinant mouse IL-12Rβ2 (produced in-house) (mouse, UniProt P97378 24-637, randomly biotinylated); assay: ELISA, periplasmic extract on biotinylated mouse IL-12Rβ2; control streptavidin-coated blocked wells
# T1 construct: also called mIL-12RB2; mouse IL-12RB2
# T1 sequence: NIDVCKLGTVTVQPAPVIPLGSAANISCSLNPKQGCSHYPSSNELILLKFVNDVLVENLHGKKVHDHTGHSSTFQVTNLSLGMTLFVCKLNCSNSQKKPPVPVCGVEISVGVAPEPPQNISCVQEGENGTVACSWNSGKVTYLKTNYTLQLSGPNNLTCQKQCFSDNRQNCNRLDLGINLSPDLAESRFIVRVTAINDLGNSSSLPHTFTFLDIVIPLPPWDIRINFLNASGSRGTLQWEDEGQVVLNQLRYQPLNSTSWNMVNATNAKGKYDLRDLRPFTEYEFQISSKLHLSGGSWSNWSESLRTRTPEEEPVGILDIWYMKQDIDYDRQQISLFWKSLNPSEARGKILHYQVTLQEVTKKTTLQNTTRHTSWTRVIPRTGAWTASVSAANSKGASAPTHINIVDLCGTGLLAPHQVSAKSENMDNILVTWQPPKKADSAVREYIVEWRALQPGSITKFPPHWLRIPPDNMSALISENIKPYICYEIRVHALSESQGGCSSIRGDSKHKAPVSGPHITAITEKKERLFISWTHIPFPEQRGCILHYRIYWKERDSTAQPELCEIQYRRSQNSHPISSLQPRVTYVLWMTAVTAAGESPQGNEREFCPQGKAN
# [2] = target: T2, biotinylated recombinant human IL-12Rβ2 (produced in-house) (human, UniProt Q99665 24-622, randomly biotinylated); assay: ELISA, periplasmic extract on biotinylated human IL-12Rβ2; control streptavidin-coated blocked wells
# T2 construct: also called hIL-12RB2; human IL-12RB2
# T2 sequence: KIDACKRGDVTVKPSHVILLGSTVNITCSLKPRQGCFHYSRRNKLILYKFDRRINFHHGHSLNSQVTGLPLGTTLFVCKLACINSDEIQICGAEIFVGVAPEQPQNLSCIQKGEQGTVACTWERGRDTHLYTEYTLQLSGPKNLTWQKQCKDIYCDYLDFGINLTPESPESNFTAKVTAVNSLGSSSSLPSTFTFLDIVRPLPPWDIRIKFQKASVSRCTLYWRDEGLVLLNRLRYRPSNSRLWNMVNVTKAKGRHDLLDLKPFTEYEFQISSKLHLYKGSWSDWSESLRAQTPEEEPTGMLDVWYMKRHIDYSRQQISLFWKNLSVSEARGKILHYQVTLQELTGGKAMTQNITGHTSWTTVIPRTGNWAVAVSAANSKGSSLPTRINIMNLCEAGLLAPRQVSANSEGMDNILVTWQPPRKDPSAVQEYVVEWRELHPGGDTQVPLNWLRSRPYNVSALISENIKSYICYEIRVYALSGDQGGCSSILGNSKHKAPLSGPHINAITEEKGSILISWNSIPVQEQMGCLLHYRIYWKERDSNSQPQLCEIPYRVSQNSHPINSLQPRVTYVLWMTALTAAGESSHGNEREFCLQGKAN
# mouse IL-12Rβ2 = target: T3, mouse IL-12Rβ2 (mouse, UniProt P97378 24-874); assay: flow cytometry, P.E. on transfected HEK293T cells
# T3 construct: Expressed on HEK293T cells transiently transfected with a pcDNA3 plasmid (Genscript clone OMu01776); also called mIL-12RB2; NP_032380.1
# T3 sequence: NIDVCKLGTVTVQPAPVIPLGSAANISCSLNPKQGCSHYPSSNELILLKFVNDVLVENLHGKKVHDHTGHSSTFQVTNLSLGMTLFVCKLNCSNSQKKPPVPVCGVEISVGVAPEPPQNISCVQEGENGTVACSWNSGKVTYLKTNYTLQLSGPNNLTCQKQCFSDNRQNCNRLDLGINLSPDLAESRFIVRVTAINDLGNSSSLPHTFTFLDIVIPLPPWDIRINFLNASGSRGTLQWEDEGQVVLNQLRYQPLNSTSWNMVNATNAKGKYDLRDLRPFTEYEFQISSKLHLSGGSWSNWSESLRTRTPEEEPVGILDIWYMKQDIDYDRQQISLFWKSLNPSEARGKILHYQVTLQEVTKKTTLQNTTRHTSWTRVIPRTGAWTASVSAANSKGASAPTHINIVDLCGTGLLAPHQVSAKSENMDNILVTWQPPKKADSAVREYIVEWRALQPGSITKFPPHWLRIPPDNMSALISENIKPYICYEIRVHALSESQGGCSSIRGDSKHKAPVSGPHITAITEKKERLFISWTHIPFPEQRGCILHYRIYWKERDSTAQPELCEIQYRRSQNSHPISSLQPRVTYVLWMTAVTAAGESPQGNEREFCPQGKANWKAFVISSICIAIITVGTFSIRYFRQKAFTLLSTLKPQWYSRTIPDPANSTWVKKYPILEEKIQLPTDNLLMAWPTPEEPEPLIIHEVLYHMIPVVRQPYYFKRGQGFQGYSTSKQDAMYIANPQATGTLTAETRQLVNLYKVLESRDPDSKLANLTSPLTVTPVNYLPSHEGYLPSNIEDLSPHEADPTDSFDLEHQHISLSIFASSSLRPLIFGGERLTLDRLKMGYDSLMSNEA
# human IL-12Rβ2 = target: T4, human IL-12Rβ2 (human, UniProt Q99665 24-862); assay: flow cytometry, P.E. on transfected HEK293T cells
# T4 construct: Expressed on HEK293T cells transiently transfected with a pcDNA3 plasmid (Genscript clone OHu21785); also called hIL-12RB2; IL-12 receptor β2 subunit
# T4 sequence: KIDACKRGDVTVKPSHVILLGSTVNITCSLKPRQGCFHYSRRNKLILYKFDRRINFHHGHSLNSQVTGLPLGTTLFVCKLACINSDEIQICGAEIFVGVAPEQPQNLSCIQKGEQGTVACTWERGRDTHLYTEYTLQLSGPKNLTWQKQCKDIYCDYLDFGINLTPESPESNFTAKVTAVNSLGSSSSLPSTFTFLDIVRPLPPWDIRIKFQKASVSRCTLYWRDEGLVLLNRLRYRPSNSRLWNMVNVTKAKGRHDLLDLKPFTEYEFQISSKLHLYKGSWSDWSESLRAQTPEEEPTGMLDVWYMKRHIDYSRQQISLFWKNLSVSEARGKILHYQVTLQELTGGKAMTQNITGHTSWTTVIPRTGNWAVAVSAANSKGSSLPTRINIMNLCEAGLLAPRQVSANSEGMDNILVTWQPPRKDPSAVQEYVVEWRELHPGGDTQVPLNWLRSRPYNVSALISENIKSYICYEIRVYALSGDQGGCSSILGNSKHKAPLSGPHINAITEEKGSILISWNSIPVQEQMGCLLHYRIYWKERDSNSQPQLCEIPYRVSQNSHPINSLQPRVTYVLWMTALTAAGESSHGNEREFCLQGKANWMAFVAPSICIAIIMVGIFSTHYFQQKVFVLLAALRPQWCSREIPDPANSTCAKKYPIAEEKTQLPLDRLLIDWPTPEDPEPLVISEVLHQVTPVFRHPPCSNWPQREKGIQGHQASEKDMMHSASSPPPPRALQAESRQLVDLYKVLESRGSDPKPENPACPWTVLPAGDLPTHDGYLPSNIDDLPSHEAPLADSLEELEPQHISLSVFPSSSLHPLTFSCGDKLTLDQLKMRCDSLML
Binder,ELISA binding mIL-12RB2/control [1],ELISA binding hIL-12RB2/control [2],% cells bound (mouse IL-12Rβ2) [%],dMFI (mouse IL-12Rβ2),% cells bound (human IL-12Rβ2) [%],dMFI (human IL-12Rβ2)
"anti-IL-12Rβ2 VHH clone 2CAM88 (VHH, Tested as periplasmic extract; CDR3 group 17) VHH: QVQLQESGGGLVPPGDSLRLSCAASGRTFSSYTMGWFRQAPGKEREFVARISQDGGSTYYADSMKGRFTVARDNAKNTVYLQMNSLKPEDTAVYYCAADMIKWGLRVGVDSFKYWGQGTQVTVSS",62.3 ratio to control,0.998 ratio to control,–,–,–,–
"anti-IL-12Rβ2 VHH clone 3CRHM73 (VHH, not shown: small tags and cut ends, periplasmic extract; also called 21060) VHH: QVQLQESGGGLVQAGGSLSLSCAASGSAFRLNFMGWYRQAPGKQRELVAAINSGGTEIYHDSVKGRFTISRDNADSTVWLQMNSLKPDDTAVYYCAADRGISWSKLAGGMDYWGKGTQVTVSS",–,–,10.4,357,19.5,397
"anti-IL-12Rβ2 VHH clone 3CRHM200 (VHH, not shown: small tags and cut ends, periplasmic extract; also called 21064) VHH: QVQLQESGGGLVQPGGSLRLSCAASGRTFSNYAMAWFRQAPGTEREFVAGLSGSGGDTAFYDNSVMGRFTISRDSAKNTMWLQINNLKPEDTAVYYCAAATHVVVSYGLVRRRGTYDYWGQGTQVTVSS",–,–,17.2,470,35.3,694
"anti-IL-12Rβ2 VHH clone 3CRHM20 (VHH, not shown: small tags and cut ends, periplasmic extract; also called 21055) VHH: QVQLQESGGGLVQAGGSLRLSCAASGRTFSKSTMGWFRQTPGKEREFVAAITWTDTEVYANSVKDRFTISRDNAKNTFYLQMHSLKLEDTAVYYCAGDRYGSSRDSVFSSPTNYPYWGQGTQVTVSS",–,–,0.18,86,28.7,556
"anti-IL-12Rβ2 VHH clone 2CRM88 (VHH, Tested as periplasmic extract; CDR3 group 18; also called 20453) VHH: QVQLQESGGGLVQAGGSLRLSCQASGRTFSNYRMGWFRQAPGKEREFVAGINWDGGHTYYTDSVKGRFTISRDNAKNTVYLQMNSLKPEDTAVYQCAVRVREYGSSRYEDQFDYWGQGTQVTVSS",3.73 ratio to control,0.873 ratio to control,–,–,–,–
"anti-IL-12Rβ2 VHH clone 3CRM66 (VHH, Tested as periplasmic extract; CDR3 group 42; also called 20461) VHH: QVQLQESGGGLVQPGGSLRLSCAASGSTFSIHAMGWYRQAPGKKRELVARITRGGSTNYADSVKGRFTISVDNAKNTVYLQMNSLKPEDTAVYDCNAETGWGEWDDYWGQGTQVTVSS",–,1.38 ratio to control,–,–,–,–
"anti-IL-12Rβ2 VHH clone 3CRHM85 (VHH, not shown: small tags and cut ends, periplasmic extract; also called 21061) VHH: QVQLQESGGGLVQPGGSLRLSCAASRRTFSKHAMAWFRQAPGKEREFVAVVRWSGIITYYADSVKGRFTISRDDAKNTVYLQMDSLKPEDTAVYYCAAGDYRGNGYYVPGMYDYWGQGTQVTVSS",–,–,0.74,157,31.2,676
"anti-IL-12Rβ2 VHH clone 3CRHM12 (VHH, not shown: small tags and cut ends, periplasmic extract) VHH: QVQLQESGGGSVQAGGSLRLSCAVSGRTVSDYAMGWFRQAPGKEREFVAAMSSSETTVYPNSVKGRITISRDNAKNAVYLQMNALKPEDTAVYYCSMGPIVTFQGLARQNEYHYWGQGTQVTVSS",–,–,1.21,103,30.4,495
"anti-IL-12Rβ2 VHH clone 3CAHM40 (VHH, not shown: small tags and cut ends, periplasmic extract) VHH: QVQLQESGGGSVQAGGSLRLSCAVSGRTVSDYAMGWFRQAPGKEREFVAAMSSSETTVYPNSMKGRITISRDNAKNAVYLQLNALKPEDTAVYYCSMGPIATFQGLARQNEYHYWGQGTQVTVSS",–,–,1.02,105,32.7,544
"anti-IL-12Rβ2 VHH clone 3CRHM133 (VHH, not shown: small tags and cut ends, periplasmic extract; also called 21063) VHH: QVQLQESGGGSVQAGGSLRLSCAVSGRPVSDYAMGWFRQAPGKEREFVAALSASDTTVYPNSVKGRITISRDNAKNAVDLQMNALKPEDTAVYYCAMGPIGTFQGLARQNEYHYWGQGTQVTVSS",–,–,0.59,133,33.7,721
"anti-IL-12Rβ2 VHH clone 3CRHM240 (VHH, not shown: small tags and cut ends, periplasmic extract; also called 21065) VHH: QVQLQESGGGSVQAGGSLRLSCAVSGRTVSDYAMGWFRQAPGKEREFVVAMSSSETTVYTNSVKGRITISRDNAKNAVYLQMNALKPEDTAVYYCSMGPITTFQGLARQNEYHYWGQGTQVTVSS",–,–,0.33,43,33.7,635
"anti-IL-12Rβ2 VHH clone 3CRHM99 (VHH, not shown: small tags and cut ends, periplasmic extract; also called 21062) VHH: QVQLQESGGGLVQPGGSLRLSCAASGISSSRLHVGWFRQSPGKEREFVAAISLSGGTQAYTDSVKGRFTISGDNVKNTAYLQMNSLRPEDTAVYYCAARERFIWTWSDLTYDYWGQGTQVTVSS",–,–,10.7,351,24.4,558
